# Test results as given in paper PMC9482650, “Quantitative fragmentomics allow affinity mapping of interactomes” (Nature Communications, 2022).
# T1: ARHGAP21, Q5T5U3
# T1 sequence (Q5T5U3 45-169, limits assumed, looked up): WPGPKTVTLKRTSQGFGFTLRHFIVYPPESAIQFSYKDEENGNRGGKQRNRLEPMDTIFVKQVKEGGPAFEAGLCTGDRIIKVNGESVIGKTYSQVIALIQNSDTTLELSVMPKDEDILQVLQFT
# T2: DLG3_2, Q92796
# T2 sequence (Q92796 221-321, limits assumed, looked up): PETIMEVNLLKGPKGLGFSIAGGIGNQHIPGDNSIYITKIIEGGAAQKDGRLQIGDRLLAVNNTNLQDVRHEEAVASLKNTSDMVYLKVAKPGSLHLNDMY
# T3: SNTG2, Q9NY99
# T3 sequence (Q9NY99 68-166, limits assumed, looked up): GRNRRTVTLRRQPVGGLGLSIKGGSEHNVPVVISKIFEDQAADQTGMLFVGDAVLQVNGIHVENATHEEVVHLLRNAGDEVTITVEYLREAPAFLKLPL
# T4: TJP3_3, O95049
# T4 sequence (O95049 375-456, limits assumed, looked up): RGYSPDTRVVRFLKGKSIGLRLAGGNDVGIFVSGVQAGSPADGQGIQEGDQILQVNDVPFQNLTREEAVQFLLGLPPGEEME
# T5: SIPA1L2, Q9P2F8
# T5 sequence (Q9P2F8 945-1036, limits assumed, looked up): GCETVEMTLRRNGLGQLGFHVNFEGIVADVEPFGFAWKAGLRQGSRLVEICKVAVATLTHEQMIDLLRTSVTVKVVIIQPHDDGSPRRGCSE
# T6: PTPN13_1, Q12923
# T6 sequence (Q12923 1088-1188, limits assumed, looked up): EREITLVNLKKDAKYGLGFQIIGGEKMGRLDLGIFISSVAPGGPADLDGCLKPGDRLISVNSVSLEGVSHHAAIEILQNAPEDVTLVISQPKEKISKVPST
# T7: SYNJ2BP, P57105
# T7 sequence (P57105 8-110, limits assumed, looked up): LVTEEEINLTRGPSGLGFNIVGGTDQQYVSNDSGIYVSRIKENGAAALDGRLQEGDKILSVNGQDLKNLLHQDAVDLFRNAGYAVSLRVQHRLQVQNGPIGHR
# T8: DFNB31_1, Q9P202
# T8 sequence (Q9P202 135-233, limits assumed, looked up): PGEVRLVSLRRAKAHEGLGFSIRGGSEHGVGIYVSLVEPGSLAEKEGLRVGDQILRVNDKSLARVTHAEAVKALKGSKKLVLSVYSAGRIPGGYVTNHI
# T9: DLG3_3, Q92796
# T9 sequence (Q92796 374-475, limits assumed, looked up): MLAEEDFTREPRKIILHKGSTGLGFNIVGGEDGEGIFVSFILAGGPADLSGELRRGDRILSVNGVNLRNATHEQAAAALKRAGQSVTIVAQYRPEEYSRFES
# T10: LRRC7, Q96NW7
# T10 sequence (Q96NW7 1440-1537, limits assumed, looked up): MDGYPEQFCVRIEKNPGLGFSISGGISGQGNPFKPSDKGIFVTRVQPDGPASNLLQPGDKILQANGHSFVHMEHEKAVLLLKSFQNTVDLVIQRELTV
# T11: SHANK1, Q9Y566
# T11 sequence (Q9Y566 658-767, limits assumed, looked up): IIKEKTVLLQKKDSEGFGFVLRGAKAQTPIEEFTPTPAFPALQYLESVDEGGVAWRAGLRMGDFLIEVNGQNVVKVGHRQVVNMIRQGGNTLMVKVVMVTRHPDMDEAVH
# T12: MPP2, Q14168
# T12 sequence (Q14168 180-250, limits assumed, looked up): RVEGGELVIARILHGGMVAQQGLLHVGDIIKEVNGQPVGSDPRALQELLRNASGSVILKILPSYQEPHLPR
# Target: DLG4_2, P78352
# Sequence (P78352 155-259): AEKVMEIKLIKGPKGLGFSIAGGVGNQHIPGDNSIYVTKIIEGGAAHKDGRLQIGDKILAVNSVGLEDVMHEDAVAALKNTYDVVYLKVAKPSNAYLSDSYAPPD
# Test: holdup assay
# Set-up: key: below the threshold = too weak to quantify, mostly under pKd 3.1 to 4
# Conditions: plain residues with an end cap or a label only (N-terminal biotin on a linker: ttds)
row,Binder,pKd
1,"PRVKPQRSKV [PPP1R13L, Q8WUF5]",below the threshold
2,"EMDRRPATVV [PLCB4, Q15147]",4.25

# Target: T1, ARHGAP21, Q5T5U3
# Test: holdup assay
# Set-up: key: below the threshold = too weak to quantify, mostly under pKd 3.1 to 4
# Conditions: plain residues with an end cap or a label only (N-terminal biotin on a linker: ttds)
row,Binder,pKd
1,"PRVKPQRSKV [PPP1R13L, Q8WUF5]",below the threshold
2,"EMDRRPATVV [PLCB4, Q15147]",3.64

# Target: T2, DLG3_2, Q92796
# Test: holdup assay
# Set-up: key: below the threshold = too weak to quantify, mostly under pKd 3.1 to 4
# Conditions: plain residues with an end cap or a label only (N-terminal biotin on a linker: ttds)
row,Binder,pKd
1,"PRVKPQRSKV [PPP1R13L, Q8WUF5]",3.73
2,"EMDRRPATVV [PLCB4, Q15147]",4.24

# Target: T3, SNTG2, Q9NY99
# Test: holdup assay
# Set-up: key: below the threshold = too weak to quantify, mostly under pKd 3.1 to 4
# Conditions: plain residues with an end cap or a label only (N-terminal biotin on a linker: ttds)
row,Binder,pKd
1,"PRVKPQRSKV [PPP1R13L, Q8WUF5]",below the threshold
2,"EMDRRPATVV [PLCB4, Q15147]",3.71

# Target: T4, TJP3_3, O95049
# Test: holdup assay
# Set-up: key: below the threshold = too weak to quantify, mostly under pKd 3.1 to 4
# Conditions: plain residues with an end cap or a label only (N-terminal biotin on a linker: ttds)
row,Binder,pKd
1,"PRVKPQRSKV [PPP1R13L, Q8WUF5]",below the threshold
2,"EMDRRPATVV [PLCB4, Q15147]",below the threshold

# Target: T5, SIPA1L2, Q9P2F8
# Test: holdup assay
# Set-up: key: below the threshold = too weak to quantify, mostly under pKd 3.1 to 4
# Conditions: plain residues with an end cap or a label only (N-terminal biotin on a linker: ttds)
row,Binder,pKd
1,"PRVKPQRSKV [PPP1R13L, Q8WUF5]",below the threshold
2,"EMDRRPATVV [PLCB4, Q15147]",below the threshold

# Target: NHERF4_2, Q86UT5
# Sequence (Q86UT5 220-308): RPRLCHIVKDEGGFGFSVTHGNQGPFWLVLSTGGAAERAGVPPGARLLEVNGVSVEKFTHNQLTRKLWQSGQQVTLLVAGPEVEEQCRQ
# Test: holdup assay
# Set-up: key: below the threshold = too weak to quantify, mostly under pKd 3.1 to 4
# Conditions: plain residues with an end cap or a label only (N-terminal biotin on a linker: ttds)
row,Binder,pKd
1,"PRVKPQRSKV [PPP1R13L, Q8WUF5]",below the threshold
2,"EMDRRPATVV [PLCB4, Q15147]",below the threshold

# Target: PTPN3, P26045
# Sequence (P26045 505-587): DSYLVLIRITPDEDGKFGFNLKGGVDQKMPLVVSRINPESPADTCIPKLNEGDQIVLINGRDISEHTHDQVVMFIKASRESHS
# Test: holdup assay
# Set-up: key: below the threshold = too weak to quantify, mostly under pKd 3.1 to 4
# Conditions: plain residues with an end cap or a label only (N-terminal biotin on a linker: ttds)
row,Binder,pKd
1,"PRVKPQRSKV [PPP1R13L, Q8WUF5]",below the threshold
2,"EMDRRPATVV [PLCB4, Q15147]",below the threshold

# Target: T6, PTPN13_1, Q12923
# Test: holdup assay
# Set-up: key: below the threshold = too weak to quantify, mostly under pKd 3.1 to 4
# Conditions: plain residues with an end cap or a label only (N-terminal biotin on a linker: ttds)
row,Binder,pKd
1,"PRVKPQRSKV [PPP1R13L, Q8WUF5]",below the threshold
2,"EMDRRPATVV [PLCB4, Q15147]",below the threshold

# Target: LNX1_2, Q8TBB1
# Sequence (Q8TBB1 371-470): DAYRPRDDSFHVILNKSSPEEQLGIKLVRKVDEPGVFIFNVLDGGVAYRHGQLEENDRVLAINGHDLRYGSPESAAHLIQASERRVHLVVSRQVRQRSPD
# Test: holdup assay
# Set-up: key: below the threshold = too weak to quantify, mostly under pKd 3.1 to 4
# Conditions: plain residues with an end cap or a label only (N-terminal biotin on a linker: ttds)
row,Binder,pKd
1,"PRVKPQRSKV [PPP1R13L, Q8WUF5]",below the threshold
2,"EMDRRPATVV [PLCB4, Q15147]",3.67

# Target: T7, SYNJ2BP, P57105
# Test: holdup assay
# Set-up: key: below the threshold = too weak to quantify, mostly under pKd 3.1 to 4
# Conditions: plain residues with an end cap or a label only (N-terminal biotin on a linker: ttds)
row,Binder,pKd
1,"PRVKPQRSKV [PPP1R13L, Q8WUF5]",below the threshold
2,"EMDRRPATVV [PLCB4, Q15147]",3.7

# Target: SCRIB_3, Q14160
# Sequence (Q14160 999-1103): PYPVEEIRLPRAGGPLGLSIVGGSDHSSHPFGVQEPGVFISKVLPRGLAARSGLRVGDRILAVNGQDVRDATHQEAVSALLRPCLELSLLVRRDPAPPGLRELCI
# Test: holdup assay
# Set-up: key: below the threshold = too weak to quantify, mostly under pKd 3.1 to 4
# Conditions: plain residues with an end cap or a label only (N-terminal biotin on a linker: ttds)
row,Binder,pKd
1,"PRVKPQRSKV [PPP1R13L, Q8WUF5]",below the threshold
2,"EMDRRPATVV [PLCB4, Q15147]",4.1

# Target: FRMPD3, Q5JV73
# Sequence (Q5JV73 12-100): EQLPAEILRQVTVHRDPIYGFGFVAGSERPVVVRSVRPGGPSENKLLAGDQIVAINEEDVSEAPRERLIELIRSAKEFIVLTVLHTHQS
# Test: holdup assay
# Set-up: key: below the threshold = too weak to quantify, mostly under pKd 3.1 to 4
# Conditions: plain residues with an end cap or a label only (N-terminal biotin on a linker: ttds)
row,Binder,pKd
1,"PRVKPQRSKV [PPP1R13L, Q8WUF5]",below the threshold
2,"EMDRRPATVV [PLCB4, Q15147]",3.64

# Target: T8, DFNB31_1, Q9P202
# Test: holdup assay
# Set-up: key: below the threshold = too weak to quantify, mostly under pKd 3.1 to 4
# Conditions: plain residues with an end cap or a label only (N-terminal biotin on a linker: ttds)
row,Binder,pKd
1,"PRVKPQRSKV [PPP1R13L, Q8WUF5]",below the threshold
2,"EMDRRPATVV [PLCB4, Q15147]",3.53

# Target: DLG2_2, Q15700
# Sequence (Q15700 189-283): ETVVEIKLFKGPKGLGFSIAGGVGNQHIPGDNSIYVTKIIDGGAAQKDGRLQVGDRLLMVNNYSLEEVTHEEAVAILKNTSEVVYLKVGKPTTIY
# Test: holdup assay
# Set-up: key: below the threshold = too weak to quantify, mostly under pKd 3.1 to 4
# Conditions: plain residues with an end cap or a label only (N-terminal biotin on a linker: ttds)
row,Binder,pKd
1,"PRVKPQRSKV [PPP1R13L, Q8WUF5]",below the threshold
2,"EMDRRPATVV [PLCB4, Q15147]",4.23

# Target: GRASP, Q7Z6J2
# Sequence (Q7Z6J2 96-193): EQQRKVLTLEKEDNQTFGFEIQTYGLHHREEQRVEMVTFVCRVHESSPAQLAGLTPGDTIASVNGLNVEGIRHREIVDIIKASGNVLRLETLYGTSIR
# Test: holdup assay
# Set-up: key: below the threshold = too weak to quantify, mostly under pKd 3.1 to 4
# Conditions: plain residues with an end cap or a label only (N-terminal biotin on a linker: ttds)
row,Binder,pKd
1,"PRVKPQRSKV [PPP1R13L, Q8WUF5]",4.39
2,"EMDRRPATVV [PLCB4, Q15147]",4.01

# Target: SCRIB_1, Q14160
# Sequence (Q14160 718-814): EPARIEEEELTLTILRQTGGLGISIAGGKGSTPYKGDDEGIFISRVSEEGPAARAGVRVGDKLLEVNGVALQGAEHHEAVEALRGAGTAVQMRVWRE
# Test: holdup assay
# Set-up: key: below the threshold = too weak to quantify, mostly under pKd 3.1 to 4
# Conditions: plain residues with an end cap or a label only (N-terminal biotin on a linker: ttds)
row,Binder,pKd
1,"PRVKPQRSKV [PPP1R13L, Q8WUF5]",below the threshold
2,"EMDRRPATVV [PLCB4, Q15147]",3.84

# Target: Inadl_6, Q8NI35
# Sequence (Q8NI35 1058-1167): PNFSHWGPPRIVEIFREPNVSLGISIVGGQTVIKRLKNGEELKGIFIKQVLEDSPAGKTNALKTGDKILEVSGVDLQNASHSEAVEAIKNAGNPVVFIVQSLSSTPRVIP
# Test: holdup assay
# Set-up: key: below the threshold = too weak to quantify, mostly under pKd 3.1 to 4
# Conditions: plain residues with an end cap or a label only (N-terminal biotin on a linker: ttds)
row,Binder,pKd
1,"PRVKPQRSKV [PPP1R13L, Q8WUF5]",below the threshold

# Target: T9, DLG3_3, Q92796
# Test: holdup assay
# Set-up: key: below the threshold = too weak to quantify, mostly under pKd 3.1 to 4
# Conditions: plain residues with an end cap or a label only (N-terminal biotin on a linker: ttds)
row,Binder,pKd
1,"PRVKPQRSKV [PPP1R13L, Q8WUF5]",below the threshold
2,"EMDRRPATVV [PLCB4, Q15147]",3.78

# Target: T10, LRRC7, Q96NW7
# Test: holdup assay
# Set-up: key: below the threshold = too weak to quantify, mostly under pKd 3.1 to 4
# Conditions: plain residues with an end cap or a label only (N-terminal biotin on a linker: ttds)
row,Binder,pKd
1,"PRVKPQRSKV [PPP1R13L, Q8WUF5]",below the threshold
2,"EMDRRPATVV [PLCB4, Q15147]",below the threshold

# Target: T11, SHANK1, Q9Y566
# Test: holdup assay
# Set-up: key: below the threshold = too weak to quantify, mostly under pKd 3.1 to 4
# Conditions: plain residues with an end cap or a label only (N-terminal biotin on a linker: ttds)
row,Binder,pKd
1,"PRVKPQRSKV [PPP1R13L, Q8WUF5]",3.64
2,"EMDRRPATVV [PLCB4, Q15147]",below the threshold

# Target: SCRIB_2, Q14160
# Sequence (Q14160 857-960): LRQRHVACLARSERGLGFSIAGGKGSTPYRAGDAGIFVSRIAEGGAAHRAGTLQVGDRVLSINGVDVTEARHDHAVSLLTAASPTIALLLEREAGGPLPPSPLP
# Test: holdup assay
# Set-up: key: below the threshold = too weak to quantify, mostly under pKd 3.1 to 4
# Conditions: plain residues with an end cap or a label only (N-terminal biotin on a linker: ttds)
row,Binder,pKd
1,"PRVKPQRSKV [PPP1R13L, Q8WUF5]",below the threshold
2,"EMDRRPATVV [PLCB4, Q15147]",below the threshold

# Target: AHNAK1, Q09666
# Sequence (Q09666 4-100): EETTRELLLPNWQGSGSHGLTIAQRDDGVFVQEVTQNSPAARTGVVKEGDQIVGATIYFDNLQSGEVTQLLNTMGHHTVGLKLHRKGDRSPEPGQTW
# Test: holdup assay
# Set-up: key: below the threshold = too weak to quantify, mostly under pKd 3.1 to 4
# Conditions: plain residues with an end cap or a label only (N-terminal biotin on a linker: ttds)
row,Binder,pKd
1,"PRVKPQRSKV [PPP1R13L, Q8WUF5]",below the threshold
2,"EMDRRPATVV [PLCB4, Q15147]",below the threshold

# Target: T12, MPP2, Q14168
# Test: holdup assay
# Set-up: key: below the threshold = too weak to quantify, mostly under pKd 3.1 to 4
# Conditions: plain residues with an end cap or a label only (N-terminal biotin on a linker: ttds)
row,Binder,pKd
1,"PRVKPQRSKV [PPP1R13L, Q8WUF5]",below the threshold
2,"EMDRRPATVV [PLCB4, Q15147]",below the threshold

# Target: NHERF2_2, Q15599
# Sequence (Q15599 142-238): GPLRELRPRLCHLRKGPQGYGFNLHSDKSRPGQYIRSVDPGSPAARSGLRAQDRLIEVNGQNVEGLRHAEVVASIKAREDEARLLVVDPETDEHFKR
# Test: holdup assay
# Set-up: key: below the threshold = too weak to quantify, mostly under pKd 3.1 to 4
# Conditions: plain residues with an end cap or a label only (N-terminal biotin on a linker: ttds)
row,Binder,pKd
1,"PRVKPQRSKV [PPP1R13L, Q8WUF5]",below the threshold
2,"EMDRRPATVV [PLCB4, Q15147]",below the threshold

# Target: PDZRN4_1, Q6ZMN7
# Sequence (Q6ZMN7 213-318): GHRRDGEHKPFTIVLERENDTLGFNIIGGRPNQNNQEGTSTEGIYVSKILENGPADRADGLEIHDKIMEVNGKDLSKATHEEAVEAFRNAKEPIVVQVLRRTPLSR
# Test: holdup assay
# Set-up: key: below the threshold = too weak to quantify, mostly under pKd 3.1 to 4
# Conditions: plain residues with an end cap or a label only (N-terminal biotin on a linker: ttds)
row,Binder,pKd
1,"PRVKPQRSKV [PPP1R13L, Q8WUF5]",below the threshold
2,"EMDRRPATVV [PLCB4, Q15147]",3.91
